Assays:
[1] = Enzyme activity of crude enzyme liquid of E. coli expressing NmGT0 to NmGT9 on apigenin (HPLC); format: biochemical, Nemophila menziesii; conditions: 80 μl crude enzyme liquid, UDP-glucose, 1 hour at 30° C., HPLC 330 nm
Procedure: 3 μg aliquots of each of pTOPO-NmGT0 to pTOPO-NmGT9 were treated with their corresponding restrictases followed by recovery of the resulting approximately 1.5 kb DNA fragments. 2 μg of vector pET15b was also treated with restrictase and ligated with the resulting DNA fragments to prepare E. coli expression constructs (pET-NmGT0 to pET-NmGT9).
pET-NmGT0 to pET-NmGT9 were introduced into E. coli strain […] using One Shot BL21 (DE3) (Invitrogen Corp.) in accordance with the protocol recommended by the manufacturer to acquire transformed E. coli. This E. coli was then cultured using the Overnight Express Autoinduction System 1 (Novagen Inc.) in accordance with the protocol recommended by the manufacturer. The transformed E. coli were cultured at 37° C. to an OD600 value of 0.5 in 2 ml of the prepared culture liquid (approx. 4 hours). This E. coli culture liquid was then used as a pre-culture liquid and added to 50 ml of culture liquid followed by final culturing overnight at 27° C. […]
A reaction liquid prepared by mixing 80 μl of crude enzyme liquid, 20 μl of 5 mM UDP-glucose, 20 μl of 1 M Tris HCl (pH 7.5) and 1 μl of 500 ng/μl apigenin on ice and bringing to a volume of 200 μl with water was held for 1 hour at 30° C. […] The Shimadzu PDA SPD-M10AVP was used for the detector and flavone was detected at 330 nm. […]

[2] = test system: petunia (Surfinia Bouquet Red); test: Flower petal pigment analysis of recombinant petunia introduced with NmGT8; format: in vivo
Text: Binary vectors pSPB5424 and pSBP5428 for expressing NmGT8 were constructed and introduced into petunia (Surfinia Bouquet Red). […] Details of the introduced constructs are described below (see FIG. 17). pBINPLUS was used for the basic skeleton of pSPB5424, and three expression cassettes were contained therein (consisting of 1: E[…] promoter, full-length cDNA pansy F3'5'H (described in PCT/JP2004/011958, SEQ ID NO: 3) and HSP terminator (Plant Cell Physiology (2010), 51, 328-332); 2: E[…] promoter, full-length cDNA torenia flavone synthase and HSP terminator; and 3: E[…] promoter, full-length cDNA NmGT8 and HSP terminator). pBINPLUS was also used for the basic skeleton of pSPB5428, and two expression cassettes were contained therein (consisting of 1: E[…] promoter, full-length cDNA torenia flavone synthase and HSP terminator; and 2: E[…] promoter, full-length cDNA NmGT8 and HSP terminator). Pigments in the flower petals were analyzed for full-length cDNA torenia flavone synthase and full-length cDNA NmGT8 in those stains in which transcription products were confirmed. 0.2 g of completely open flower petals were freeze-dried for 24 hours or more and finely crushed with a spatula, followed by the addition of 4 ml of extract buffer (composition: 50% aqueous acetonitrile solution containing 0.1% TFA) and subjecting to ultrasonic treatment for 20 minutes. The flower petal extract was analyzed by high-performance liquid chromatography (Prominence (Shimadzu Corp.)). Analyses were carried out under the conditions and in the same manner as in Example 5. Non-recombinant petunia not introduced with genes and recombinant petunia introduced only with torenia flavone synthase that biosynthesizes flavone were analyzed in the same manner as controls (FIG. 18). Moreover, flower petal extract diluted 50-fold was also analyzed with a high-performance liquid chromatograph (Shimadzu Corp.). The Shimadzu LCMS-IF-TOF was used for the detector and flavones were detected at 433.1057 ([Api-Glc+H]) and 449.1084 ([Lut-Glc+H]). The Inertsil ODS-4 (250×4.6 mm, 5 Shimadzu Corp.) was used for the column. […]

[3] = recombinant petunia flower petal extract, LC-MS

B1: NmGT8: nemophila glycosyltransferase (SEQ ID NO: 1/2) having activity that transfers a sugar to the hydroxyl group at the 4′-position of a flavone (protein, listed as Nemophila menziesii)
chain: MEKKTIILYPSPGIGHLVSMVELAKLILNREPSYSIIIFISSAPYSTGSSAPYISHVSATTSGISFHHLPVLVLPPNTFSSFEEIAYKIPQLNNPNLKLALQTISKESSDLKAFIIDFFCTAAVEVSSNLEIPTYFFFTSGSSAMCQFLYLPTLHETITQKDLQDPNTYVHIPGIPPIHSLDLPKVLSNRSTVLYKELINTANQMAKCSGILINAFETLEPKAVKALKEGLCTPGMPTPPVYCIGPLIASGDKGNVNDAHGHEILTWLNSQPSKSVVFLCFGSLGTFKEDQLKEIAIGLENSGHRFLWVMKSPPIDDKTKRFLPPPEPDFNVLLPEGFLERTKERGVIVKSWAPQLAILNHDAIGGFVTHCGWNSVLEAICGGVPMLAWPLYAEQRVNRVCMVEEMKVALPLEESVDGFVMASEIEKRVKELVDYESSEAIRDQVKIMSEKAKTAVAVSGSSHDALTKLLDGWK
HPLC peak other than substrate [1]: a peak other than that of the substrate was observed
flavone 4′-glucoside share of the biosynthesized flavones [2, 3]: 95.6%
flavone 7-glucoside share of the biosynthesized flavones [2, 3]: 4.4%
flavones detected in flower petals ([2]; recombinant petunia introduced with flavone synthase and NmGT8, HPLC): apigenin 4′-glucoside and luteolin 4′-glucoside were detected

From patent US10059956B2, “Glycosyltransferase gene and use thereof” (SUNTORY HOLDINGS LIMITED, priority 2012, dated 2018)
